Experiment [1] concerns the target Recombinant human erythropoietin (rhEPO) from the baculovirus/Sf9 expression system (Protein Sciences) (human).
In experiment [2] the target is Fc Cri-IgG1 (Cri-IgG1 treated with a protease so that only the Fc portion remained) (human).
The target of experiment [3] is Cri-IgG1 monoclonal antibody (non-recombinant, isolated from a human myeloma) (human).
Experiment [4] deals with Recombinant human erythropoietin (rhEPO) from the baculovirus/Sf9 expression system (Protein Sciences) (human). The source holds these as a separate data set.
Target sequence in this assay (chain, as listed by the source): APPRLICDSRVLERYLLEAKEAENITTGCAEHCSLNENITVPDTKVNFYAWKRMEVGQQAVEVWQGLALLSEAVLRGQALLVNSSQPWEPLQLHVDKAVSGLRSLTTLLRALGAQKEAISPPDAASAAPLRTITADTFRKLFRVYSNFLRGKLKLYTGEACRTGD
Experiment [5] has as its target Ribonuclease B (RNaseB) purified from bovine pancreas (Sigma) (bovine) (UniProt P61823).
For experiment [6], the target named is Recombinant human erythropoietin (rhEPO) from the baculovirus/Sf9 expression system (Protein Sciences) (human). This is another data set of the same source.
Experiment [7] addresses Fc Cri-IgG1 (Cri-IgG1 treated with a protease so that only the Fc portion remained) (human). This is another data set of the same source.
Experiment [8] has as its target Cri-IgG1 monoclonal antibody (non-recombinant, isolated from a human myeloma) (human). This is another data set of the same source.
In experiment [9] the target is Fc Cri-IgG1 (Cri-IgG1 treated with a protease so that only the Fc portion remained) (human). This is another data set of the same source.
The target in experiment [10] is Cri-IgG1 monoclonal antibody (non-recombinant, isolated from a human myeloma) (human). This is another data set of the same source.
In experiment [11] the target is Ribonuclease B (RNaseB) purified from bovine pancreas (Sigma) (bovine) (UniProt P61823). The source holds these as a separate data set.
Ribonuclease B (RNaseB) purified from bovine pancreas (Sigma) (bovine), sequence (P61823 27-150): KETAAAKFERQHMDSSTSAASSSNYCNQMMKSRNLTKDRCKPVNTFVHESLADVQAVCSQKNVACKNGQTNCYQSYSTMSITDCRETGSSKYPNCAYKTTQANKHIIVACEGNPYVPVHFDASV
In experiment [12] the target is ATIII (Antithrombin III) from Genzyme Transgenics (human).
In experiment [13] the target is asialo-α1 Antitrypsin (PPL) (human).
asialo-α1 Antitrypsin (PPL) (human), sequence (chain, as listed by the source limits assumed): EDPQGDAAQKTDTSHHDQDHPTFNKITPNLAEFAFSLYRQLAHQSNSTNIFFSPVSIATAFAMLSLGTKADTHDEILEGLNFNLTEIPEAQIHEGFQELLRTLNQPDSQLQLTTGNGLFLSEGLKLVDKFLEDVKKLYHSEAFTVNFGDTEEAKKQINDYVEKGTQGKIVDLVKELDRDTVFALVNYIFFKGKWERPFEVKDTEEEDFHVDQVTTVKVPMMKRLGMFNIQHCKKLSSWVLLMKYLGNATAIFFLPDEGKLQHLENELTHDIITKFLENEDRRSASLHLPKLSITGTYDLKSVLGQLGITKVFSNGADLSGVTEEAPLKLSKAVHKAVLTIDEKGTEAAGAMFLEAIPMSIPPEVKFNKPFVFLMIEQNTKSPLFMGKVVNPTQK
For experiment [14], the target named is Recombinant human erythropoietin (rhEPO) from the baculovirus/Sf9 expression system (Protein Sciences) (human). This is another data set of the same source.
Target sequence in this assay (chain, as listed by the source): as the sequence (chain, as listed by the source) above
The target of experiment [15] is Fc Cri-IgG1 (Cri-IgG1 treated with a protease so that only the Fc portion remained) (human). This is another data set of the same source.
The target of experiment [16] is Cri-IgG1 monoclonal antibody (non-recombinant, isolated from a human myeloma) (human). This is another data set of the same source.
The target in experiment [17] is Recombinant human erythropoietin (rhEPO) from the baculovirus/Sf9 expression system (Protein Sciences) (human). The source holds these as a separate data set.
Target sequence in this assay (chain, as listed by the source): as above

As for “ST6Gal1 (α2,6-sialyltransferase) (enzyme)”, the incorporation of radiolabelled sialic acid (% of the radiolabel) in experiment [1] was found to be 5.7.

Consider “GalT1 (β1,4 galactosyltransferase 1) (from UniProt P08037) (enzyme)”, for which the results for the relative amount of the G2 glycoform by CE in experiment [2] and in experiment [3] were 84% and 90%, respectively. Also, the released glycans with terminal galactose (HPLC, MALDI) in [4] was 97%. In experiment [5], this molecule came in with an addition of Gal; MALDI-TOF of 98%.

Regarding GnT-V (enzyme), in experiment [6], the conversion to the tri-antennary glycan (2AA HPLC) was found to be 92%.

As to “β-N-acetylhexosaminidase (from Jack Bean, Seikagaku) (enzyme)”, the relative amount of the M3N2F glycoform by CE is 100% in experiment [7] and 91.4% in experiment [8].

B1: ST3Gal III (α2,3-sialyltransferase, EC 2.4.99.6) (enzyme)
chain: KLHLLQWEDSNSLILSLDSAGQTLGTEYDRLGFLLKLDSKLPAELATKYANFSEGACKPGYASAMMTAIFPRFSKPAPMFLDDSFRKWARIREFVPPFGIKGQDNLIKAILSVTKEYRLTPALDSLHCRRCIIVGNGGVLANKSLGSRIDDYDIVIRLNSAPVKGFEKDVGSKTTLRITYPEGAMQRPEQYERDSLFVLAGFKWQDFKWLKYIVYKERVSASDGFWKSVATRVPKEPPEIRILNPYFIQEAAFTLIGLPFNNGLMGRGNIPTLGSVAVTMALDGCDEVAVAGFGYDMNTPNAPLHYYETVRMAAIKESWTHNIQREKEFLRKLVKARVITDLSSGI
For the molecule B1, in [1], the incorporation of radiolabelled sialic acid was determined as 10.9 moles/mole. Moreover, the relative amount of the S2G2 glycoform by HPLC (peak at 49.4 min) in experiment [9] was 61.9%; in experiment [10], 58.9%. In experiment [11], this molecule registered an addition of sialic acid; MALDI-TOF of 90%. Also, the % Rxn (completion of sialylation by 14C-NeuAc incorporated, against terminal Gal content) in the experiment with Asialo-fetuin (Sigma) turned out to be 116%; in experiment [12] it was 117%; in [13], 100%.

B2: GnT-II (β1,2-mannosyl-UDP-N-acetylglucosaminosyltransferase II) (enzyme)
chain: RQRKNEALAPPLLDAEPARGAGGRGGDHPSVAVGIRRVSNVSAASLVPAVPQPEADNLTLRYRSLVYQLNFDQTLRNVDKAGTWAPRELVLVVQVHNRPEYLRLLLDSLRKAQGIDNVLVIFSHDFWSTEINQLIAGVNFCPVLQVFFPFSIQLYPNEFPGSDPRDCPRDLPKNAALKLGCINAEYPDSFGHYREAKFSQTKHHWWWKLHFVWERVKILRDYAGLILFLEEDHYLAPDFYHVFKKMWKLKQQECPECDVLSLGTYSASRSFYGMADKVDVKTWKSTEHNMGLALTRNAYQKLIECTDTFCTYDDYNWDWTLQYLTVSCLPKFWKVLVPQIPRIFHAGDCGMHHKKTCRPSTQSAQIESLLNNNKQYMFPETLTISEKFTVVAISPPRKNGGWGDIRDHELCKSYRRLQ
Turning to B2, the completion of the bi-antennary GlcNAc glycan (HPLC, MALDI) in [14] was above 99%. Besides, the % peak area of the bisecting (NGA2F) glycoform by CE in experiment [15] was 58.4%; in [16], 63.6%.

B3: GnT-III (β1,4-mannosyl-UDP-N-acetylglucosaminosyltransferase III) (enzyme)
chain: HFFKTLSYVTFPRELASLSPNLISSFFWNNAPVTPQASPEPGDPDLLRTPLYSHSPLLQPLSPSKATEELHRVDFVLPEDTTEYFVRTKAGGVCFKPGTRMLEKPSPGRTEEKTEVSEGSSARGPARRPMRHVLSSRERLGSRGTRRKWVECVCLPGWHGPSCGVPTVVQYSNLPTKERLVPREVPRRVINAININHEFDLLDVRFHELGDVVDAFVVCDSNFTAYGEPRPLKFREMLTNGTFEYIRHKVLYVFLDHFPPGGRQDGWIADDYLRTFLTQDGVSRLRNLRPDDVFIIDDADEIPARDGVLFLKLYDGWTEPFAFHMRKSLYGFFWKQPGTLEVVSGCTMDMLQAVYGLDGIRLRRRQYYTMPNFRQYENRTGHILVQWSLGSPLHFAGWHCSWCFTPEGIYFKLVSAQNGDFPRWGDYEDKRDLNYIRSLIRTGGWFDGTQQEYPPADPSEHMYAPKYLLKNYDQFRYLLENPYREPKSTVEGGRQNQGSDGRSSAVRGKLDTAEG
For B3, the % peak area of the bisecting (NGA2F) glycoform by CE in experiment [15] turned out to be 58.4%; in [16], 63.6%.

B4: GnT-I (β1,2-mannosyl-UDP-N-acetylglucosaminosyltransferase I) (enzyme)
chain: TRPAPGRPPSVSALDGDPASLTREVIRLAQDAEVELERQRGLLQQIGDALSSQRGRVPTAAPPAQPRVPVTPAPAVIPILVIACDRSTVRRCLDKLLHYRPSAELFPIIVSQDCGHEETAQAIASYGSAVTHIRQPDLSSIAVPPDHRKFQGYYKIARHYRWALGQVFRQFRFPAAVVVEDDLEVAPDFFEYFRATYPLLKADPSLWCVSAWNDNGKEQMVDASRPELLYRTDFFPGLGWLLLAELWAELEPKWPKAFWDDWMRRPEQRQGRACIRPEISRTMTFGRKGVSHGQFFDQHLKFIKLNQQFVHFTQLDLSYLQREAYDRDFLARVYGAPQLQVEKVRTNDRKELGEVRVQYTGRDSFKAFAKALGVMDDLKSGVPRAGYRGIVTFQFRGRRVHLAPPLTWEGYDPSWN
Take B4: the conversion of the tri-mannosyl glycoform to 'tri-mannosyl core+2 GlcNAc' (2-AA HPLC) in experiment [17] came out at 100%.

These data come from patent publication US20100261872A1, “Factor VIII: remodeling and glycoconjugation of factor VIII” (Neose Technologies, Inc., published 2010).
